We go through 33 molecules from patent publication US20150232562A1 (Ablynx, published 2015).

B1: 15C9 (VHH)
VHH: EVQLVESGGGLVQAGGSLKLSCVNSGIPSTLRAMAWYRQAPGRQRDWVATSSNTGGTTYDDSVKGRFTISRDNAKNTVYLQMNSLKPEDTGVYYCRDVNRDLWGQGTQVTVSS
notes: C-term myc-His6 tag
B2: 13D10 (VHH)
VHH: EVQLVESGGGLVQPGGSLRLSCAASSVITLDSNAIGWFRQAPGKEREEVSCIASSDGSTYYAESVKGRFTISKDYTRNTVYLQVNSLKPEDTAVYHCATDANPNCGLNVWNSWGQGTQVTVSS
notes: C-term myc-His6 tag
B3: 15D2 (VHH)
VHH: EVQLVESGGGLVQAGGSLRLSCVVSGVFGPIRAMAWYRQAPGKQRDWVATIGSSGHPVYTDSVKGRFTFSKDGAKNTVYLQMNSLKPEDTAVYYCRDINRDYWGQGTQVTVSS
notes: C-term myc-His6 tag
B4: 27F2 (VHH)
VHH: EVQLVESGGGLVQAGGSLRLSCAASGIISSFRTLAWYRQAPGKQRDWVATISSAGGTAYADAVKGRFTISISRDNVEYTVDLQMDSLKPEDTAVYYCRDINGDYWGQGTQVTVSS
notes: C-term myc-His6 tag
B5: 17B7 (VHH)
VHH: EVQLVESGGGLVQAGGSLRLSCAASGIISSFRTMAWYRQAPGKQRDWVATIGSDGLANYADSVKGRFTISRDNAKKTVYLQMNSLKPEDTAVYFCRDINRDYWGQGTQVTVSS
notes: C-term myc-His6 tag
B6: 15B6 (VHH)
VHH: EVQLVESGGGLVQPGGSLRLSCAASGIIGSFRTMAWYRQAPGNQRDWVATIGSAGLASYADSVRGRFTLSRDNAKKTVYLQMNSLKPEDTAIYYCRDINGDYWGQGTQVTVSS
notes: C-term myc-His6 tag
B7: 15E10 (VHH)
VHH: EVQLVESGGGLVQAGGSLKLSCVASGITFFRYTMGWYRQAPGKERELVAEISSADEPSFADAVKGRFTISRDNAKNTVVLQMNGLKPEDTAVYYCKGSWSYPGLTYWGKGTLVTVSS
notes: C-term myc-His6 tag
B8: 17B5 (VHH)
VHH: EVQLVESGGGLVQTGGSLRLSCAASGSTFRTDMMGWYRQAPGKQREFVASITKFGSTNYADSVKGRFTISNDNAKDTVYLQMNSLKSEDTAVYYCRNFNRDLWGQGTQVTVSS
notes: C-term myc-His6 tag
B9: 17C6 (VHH)
VHH: EVQLVESGGGLVQAGGSLTLSCAASGSTSSLDIMAWYRQAPEKQRELVASVSGGGNSDYASSVKGRFTISGDTAKSTLYLQMNSLKPEDTAMYYCYGRDYYYMPFWGQGTQVTVSS
notes: C-term myc-His6 tag
B10: 17D5 (VHH)
VHH: EVQLVESGGGLVQPGGSLRLSCAASGIIGTIRTMAWYRQAPGKQRDWVASIGTRGAPVYADSVNGRFTISRDGATNTVFLQMNNLKPEDTAVYYCRDVNRDYWGQGTQVTVSS
notes: C-term myc-His6 tag
B11: 17F7 (VHH)
VHH: EVQLVESGGGLVQAGGSLRLSCVASGIAQSIRVMAWYRQPPGKQRDWVGTISSDGTANYADSVKGRFTISRDNAKKTMYLQMNSLKPDDTAVYYCRDVNRDYWGQGTQVTVSS
notes: C-term myc-His6 tag
B12: 15G10 (VHH)
VHH: EVQLVESGGGLVQAGGSLSLSCAASGRFFSTRVMAWYRQTPGKQREFVASMRGSGSTNYADSARGRFAISRDNAKNTVYLQMNSLKPEDTAVYYCRDINEDQWGQGTQVTVSS
notes: C-term myc-His6 tag
B13: 17A8 (VHH)
VHH: EVQLVESGGGLVQAGGSLSLSCAASGRFFSTRVMAWYRQTPGKQREFVASMRGSGSTNYADSVRGRFAISRDNAKNMVYLQMNTLKPEDTAVYYCRDINEDQWGQGTQVTVSS
notes: C-term myc-His6 tag
B14: 27A3 (VHH)
VHH: EVQLVESGGGLVQAGGSLSLSCVASGRFFSTRVMAWYRQTPGKQREFVASMRGSGSTNYADSVRGRFAISRDNAKNTVYLQMNTLKPEDTAVYYCRDINEDQWGQGTQVTVSS
notes: C-term myc-His6 tag
B15: 17H10 (VHH)
VHH: EVQLVESGGGLVQAGGSLSLSCSASGRFFSTRVMAWYRQTPGNQREFVATIHSSGSTIYADSVRGRFAISRDNAKNTVYLQMRSLKPEDTAVYYCRDINADQWGQGTQVTVSS
notes: C-term myc-His6 tag
B16: 15A2 (VHH)
VHH: EVQLVESGGGLAQAGGSLSLSCAASGRFFSTRVMAWYRQTPGKQREFVASMRGSGSTNYADSARGRFAISRDNAKNTVYLQMNSLKPEDTAVYYCRDINEDQWGQGTQVTVSS
notes: C-term myc-His6 tag
B17: 15H4 (VHH)
VHH: EVQLVESGGGLVQAGGSLTLSCAPSESTVSFNTVAWYRQAPGEQREWVATISRQGMSTYPDSVKGRFTISRDNAKNTVYLQMNNLKPEDTAVYYCRDINHDIWGRGSQVTVSS
notes: C-term myc-His6 tag
B18: 46G1 (VHH)
VHH: EVQLVESGGGLVQAGGSLRLSCAASGRTFSDDAMGWFRQAPGKERECVASLYLNGDYPYYADSVKGRFTISRDNAKNAVILQMNNLKTEDTAVYYCAAKPGWVARDPSQYNYWGQGTQVTVSS
notes: C-term myc-His6 tag
B19: 46E4 (VHH)
VHH: EVQLVESGGGLVQAGGSLRLSCAASGRAFKDDAVGWFRQAPGKERECVASMYLDGDYPYYADSVKGRFTISRDNAKNAVILQMNNLKTEDTAVYYCAAKPGWVARDPSEYNYWGQGTQVTVSS
notes: C-term myc-His6 tag
B20: 27D3 (VHH)
VHH: EVQLMESGGGLVQPGGSLRLSCAASGLGIAFSRRTMAWYRQAPGKQRDWVATIAGDGSTVYADSMKGRFTISRDNAENTVYLQMNSLKPEDTAVYYCWDVNRDYWGQGTQVTVSS
notes: C-term myc-His6 tag
B21: 15C8 (VHH)
VHH: EVQLVESGGGLVQAGGSLRLSCAASGIAFRIRTMAWYRQAPGKQRDWVATSDSGGTTLYADSVKGRFTVSRDNAENTVYLQMNSLKPEDTAVYYCRDVNRDYWGQGTQVTVSS
notes: C-term myc-His6 tag
B22: 27B5 (VHH)
VHH: EVQLVESGGGLVQAGGSLRLPCAASGIAFRIRTMAWYRQAPGKQRDWVATSDSGGTTLYADSVKGRFTVSRDNAENTVYLQMNSLKPEDTAVYYCRDVNRDYWGQGTQVTVSS
notes: C-term myc-His6 tag
B23: 27C7 (VHH)
VHH: EVQLVESGGGLVQAGGSLRLSCAASGIAFRIRTMAWYRQAPGKQRDWVATSDSGGTTLYADSVKGRFTVSRDNADNTVYLQMNSLKPEDTAVYYCRDVNRDYWGQGTQVTVSS
notes: C-term myc-His6 tag
B24: 13B12 (VHH)
VHH: EVQLVESGGGLVQAGGSLRLSCAASGIAFRIRTMAWYRQAPGKQRDWVATIGSDGTTIYADSVKGRFTLSRHNAENTVYLQMNSLKPEDTAVYYCRDVNRDYWGQGTQVTVSS
notes: C-term myc-His6 tag
B25: 13C4 (VHH)
VHH: EVQLVESGGGLVQAGGSLRLSCVVSGIPSSIRAMAWYRQAPGRQRDWVATIYSPSGSAVYADSVKGRFTISSDNAKSTIYLQMNSLKPDDTAVYYCRDVNREYWGQGTQVTVSS
notes: C-term myc-His6 tag
B26: 15B2 (VHH)
VHH: EVQLVESGGGLVQAGGSLRLSCVVSGIPSSIRAMAWYRQAPGRQRDWVATIYSPSGSAVYADSVKGRFTISSDNAKSTIYLQMNSLKPDDTAVYYCRDVNRDYWGQGTQVTVSS
notes: C-term myc-His6 tag
B27: 13D4 (VHH)
VHH: EVQLVESGGGLVQAGGSLRLSCVVSGIPSSIRAMAWYRQAPGRQRDWVATIYSPSGSAVYADSVKGRFTISSDNAKSTIYLQMNSLEPDDTAVYYCRDVNREYWGQGTQVTVSS
notes: C-term myc-His6 tag
B28: 15B11 (VHH)
VHH: EVQLVESGGGSVQAGGSLRLSCVVSGIPSSIRAMAWYRQAPGRQRDWVATIYSRSGGAVYADSVKGRFTISSDNAKNTIYLQMNSLKPDDTAVYYCRDVNRDYWGQGTQVTVSS
notes: C-term myc-His6 tag
B29: 15G5 (VHH)
VHH: EVQLVESGGGLVQAGGSLRLSCVVSGIPSTIRAMAWYRQAPGRQRDWVATIYSPSGSAVYADSVKGRFTISSDNAKKTIYLQMNSLKPDDTAVYYCRDVNREYWGQGTQVTVSS
notes: C-term myc-His6 tag
B30: 17A10 (VHH)
VHH: EVQLVESGGGLVQAGGSLRLSCVASGIPSIRAIAWYRQAPGKQRDWVATSGTGYGATYDDSVKGRFTLSRDNAKNTVYLQMNSLKPEDTAVYYCRDVNRDYWGQGTQVTVSS
notes: C-term myc-His6 tag
B31: 13C9 (VHH)
VHH: EVQLVESGGGLVQAGGSLRLSCVASGIPSIHAMAWYRQAPGKQRDWGATTYSRGGTTYNDSAKGRFTISRDNAKKTVYLQMNSLKPEDTAVYYCRDVNRDYWGQGTQVTVSS
notes: C-term myc-His6 tag
B32: 30D10 (VHH)
VHH: EVQLVESGGGLVQAGGSLTLSCTASETTVRIRTMAWYRQPPGNQREWVATIGSNGFATYPDSVKGRFTISRDNAKNTVYLQMNSLKPEDTAVYYCRDINRDIWGQGSQVTVSS
notes: C-term myc-His6 tag
B33: 27E7 (VHH)
VHH: EVQLVESGGGLVQAGGSLRLSCAASGITFRRYDMGWYRQFPGKERELVATILSEGDTNYVDPVKGRFTISRDNAKNTVYLQMNDLKPEDTAVYYCNGVWRAIGRTYWGQGTQVTVSS
notes: C-term myc-His6 tag

The target of the experiment is T1, recombinant human ErbB2/Fc chimera (human, UniProt P04626 23-652).
T1 construct: bought from R&D Systems; also called rhErbB2-Fc; rhErb2-Fc; Fc part of the bought chimera not given; not described
As to the kind of experiment: ELISA, coated ErbB2/Fc. Background: ELISA stands for enzyme-linked immunosorbent assay.
For B1, the binding result is listed as “binds”. Under B2 stands “binds”; under B3, “binds”; under B4, “binds”. Under B5 stands “binds”.

As for B6, the binding result is given as “binds”.

With B7, the binding result is on record as “binds”. Under B8 stands “binds”; under B9, “binds”; under B10, “binds”.

Consider B11, for which the binding result was “binds”. Under B12 stands “binds”; under B13, “binds”; under B14, “binds”. Take B15: the binding result was “binds”.

Turning to B16, the binding result is “binds”. Under B17 stands “binds”; under B18, “binds”; under B19, “binds”.

As for B20, the binding result is recorded as “binds”.

Take B21: the binding result is on record as “binds”. As to B22, the binding result is listed as “binds”. Under B23 stands “binds”; under B24, “binds”; under B25, “binds”.

Take B26: the binding result is “binds”. Under B27 stands “binds”. Under B28 stands “binds”; under B29, “binds”.

As for B30, the binding result is recorded as “binds”.

Consider B31, for which the binding result was “binds”. Turning to B32, the binding result is given as “binds”.

For the molecule B33, the binding result is “binds”.
